Reference: paper doi:10.1101/654111 (bioRxiv, 2019)

Biological target: the molecule itself
Assay: SEC-MALS

B1: Gemin5 TPR-like domain (residues 807-1097) (domain or fragment)
chain: TPVSSGFEKSKVTINNKVILLKKEPPKEKPETLIKKRKARSLLPLSTSLDHRSKEELHQDCLVLATAKHSRELNEDVSADVEERFHLGLFTDRATLYRMIDIEGKGHLENGHPELFHQLMLWKGDLKGVLQTAAERGELTDNLVAMAPAAGYHVWLWAVEAFAKQLCFQDQYVKAASHLLSIHKVYEAVELLKSNHFYREAIAIAKARLRPEDPVLKDLYLSWGTVLERDGHYAVAAKCYLGATCAYDAAKVLAKKGDAASLRTAAELAAIVGEDELSASLALRCAQELLL
Q: Which “stoichiometry N” value does the source give for B1 here?
A: Its value is 2.
